Results on 1 molecule are retold here after PMC10343166, “Structure of puromycin-sensitive aminopeptidase and polyglutamine binding” (PLOS ONE, 2023).

The target of experiment [1] is T1, Puromycin-sensitive aminopeptidase, wild type, with C-terminal polyhistidine sequence (kinetic studies) (human, UniProt P55786 1-919).
T1 construct: Human puromycin-sensitive aminopeptidase (PSA, NPEPPS), UniProt P55786; also called PSA^wt; wild type PSA
The experiment in a line: competitive inhibition of enzyme activity (Dixon plots); apparent Ki from inhibition of Ala-4MβNA cleavage at increasing peptide concentrations; 20 mM HEPES pH 7.0, 2 mM BME, 37°C; 20 μM (PSA^wt) or 100 μM (PSA^F433A) Ala-4MβNA; triplicate. As to conditions: both partners purified.

Experiment [2] addresses T2, Puromycin-sensitive aminopeptidase F433A mutant, with C-terminal polyhistidine sequence (human, UniProt P55786 1-919, F433A).
T2 construct: Human puromycin-sensitive aminopeptidase (PSA, NPEPPS), UniProt P55786, with F433A; also called PSA^F433A
The description is as above. As to conditions: both partners purified.

T1 sequence (P55786 whole entry): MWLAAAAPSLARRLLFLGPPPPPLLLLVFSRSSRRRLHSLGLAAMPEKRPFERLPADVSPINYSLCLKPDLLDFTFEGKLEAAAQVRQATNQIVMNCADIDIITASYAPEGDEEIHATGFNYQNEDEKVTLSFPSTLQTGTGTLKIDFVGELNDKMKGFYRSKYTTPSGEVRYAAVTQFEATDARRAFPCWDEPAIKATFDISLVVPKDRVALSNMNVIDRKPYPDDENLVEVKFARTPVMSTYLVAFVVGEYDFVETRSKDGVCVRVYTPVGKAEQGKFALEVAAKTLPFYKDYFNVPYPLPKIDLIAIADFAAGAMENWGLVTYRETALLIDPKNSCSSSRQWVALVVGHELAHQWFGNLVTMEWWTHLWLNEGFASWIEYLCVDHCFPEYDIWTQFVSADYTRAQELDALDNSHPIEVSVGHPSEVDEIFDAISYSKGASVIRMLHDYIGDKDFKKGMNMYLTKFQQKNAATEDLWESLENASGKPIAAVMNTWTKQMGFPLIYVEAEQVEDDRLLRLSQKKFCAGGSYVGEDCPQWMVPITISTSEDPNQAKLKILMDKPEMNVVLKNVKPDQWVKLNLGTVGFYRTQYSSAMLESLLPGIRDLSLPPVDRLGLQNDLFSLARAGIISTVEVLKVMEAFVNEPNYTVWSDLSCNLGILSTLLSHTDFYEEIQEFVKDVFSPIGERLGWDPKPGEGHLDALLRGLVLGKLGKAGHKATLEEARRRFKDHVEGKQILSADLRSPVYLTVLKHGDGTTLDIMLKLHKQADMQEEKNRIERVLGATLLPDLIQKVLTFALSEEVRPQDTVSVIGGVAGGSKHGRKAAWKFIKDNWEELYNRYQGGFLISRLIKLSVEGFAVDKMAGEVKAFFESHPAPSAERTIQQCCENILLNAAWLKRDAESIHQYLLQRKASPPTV
T2 sequence (P55786 whole entry F433A): as the sequence (P55786 whole entry) above, with F433A counted along it

B1: Polyglutamine peptide Lys2Gln15Lys2 (peptide)
peptide: KKQQQQQQQQQQQQQQQKK
notes: Printed as Lys2Gln15Lys2 (19-mer); In PDB 8SW1 only 6 residues are modelled, deposited as polyalanine; also called PQ; PQ peptide; source: synthetic peptide, bought: Peptidogenic Research and Co; purified (TFA/hexafluoro-2-propanol, centrifugation)
In the case of B1, the Ki in experiment [1] came out at 1.3 µM; in experiment [2], 4.9 µM.
